According to US20250304640A1 (ORIKINE BIO SL, published 2025):
Residue numbers refer to the chain shown, from its start. Names may count otherwise. Each block holds one binder with its values, some of them ahead of it.

Assays:
Experiment in all cases: cell-based or functional assay
[1] = target: CSF1 receptor (CSF1R) (UniProt P07333)
[2] = target: T1, IL-10 receptor (IL-10R: IL10RA and IL10RB) on HEK-Blue IL-10 reporter cells (UniProt Q13651 22-578; Q08334 20-325, limits assumed)
T1 sequence (looked up) 1: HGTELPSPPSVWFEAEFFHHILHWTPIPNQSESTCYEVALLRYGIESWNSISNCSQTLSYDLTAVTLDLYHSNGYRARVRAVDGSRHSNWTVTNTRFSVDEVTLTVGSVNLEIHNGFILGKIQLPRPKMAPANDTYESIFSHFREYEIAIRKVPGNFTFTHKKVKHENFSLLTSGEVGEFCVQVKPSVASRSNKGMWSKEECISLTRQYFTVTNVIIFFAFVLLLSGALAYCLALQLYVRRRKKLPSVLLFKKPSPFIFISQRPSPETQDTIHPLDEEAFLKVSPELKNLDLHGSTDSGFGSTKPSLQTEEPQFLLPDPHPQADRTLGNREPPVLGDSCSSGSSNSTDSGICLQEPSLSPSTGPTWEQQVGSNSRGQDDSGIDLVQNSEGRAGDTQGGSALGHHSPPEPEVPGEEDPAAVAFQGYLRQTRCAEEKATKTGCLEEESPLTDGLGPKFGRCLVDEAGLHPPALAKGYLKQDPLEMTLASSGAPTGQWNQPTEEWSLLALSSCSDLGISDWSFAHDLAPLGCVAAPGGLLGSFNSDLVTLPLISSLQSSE
T1 sequence (looked up) 2: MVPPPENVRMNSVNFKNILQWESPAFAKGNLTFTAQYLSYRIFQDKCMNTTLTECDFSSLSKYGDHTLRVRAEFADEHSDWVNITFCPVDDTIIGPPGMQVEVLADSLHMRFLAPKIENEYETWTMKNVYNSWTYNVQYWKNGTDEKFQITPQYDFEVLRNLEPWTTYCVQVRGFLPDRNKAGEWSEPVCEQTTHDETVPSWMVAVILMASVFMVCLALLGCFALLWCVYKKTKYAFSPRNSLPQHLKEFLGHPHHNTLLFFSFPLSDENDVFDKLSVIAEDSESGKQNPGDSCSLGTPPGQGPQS

[3] = target: T1, IL-10 receptor (IL-10R: IL10RA and …); remark: listed apart in the source
[4] = target: T2, IL10RA (UniProt Q13651 22-578, limits assumed)
T2 sequence (looked up): T1 sequence (looked up) 1

CSF1 receptor (CSF1R), sequence (P07333 20-972 limits assumed): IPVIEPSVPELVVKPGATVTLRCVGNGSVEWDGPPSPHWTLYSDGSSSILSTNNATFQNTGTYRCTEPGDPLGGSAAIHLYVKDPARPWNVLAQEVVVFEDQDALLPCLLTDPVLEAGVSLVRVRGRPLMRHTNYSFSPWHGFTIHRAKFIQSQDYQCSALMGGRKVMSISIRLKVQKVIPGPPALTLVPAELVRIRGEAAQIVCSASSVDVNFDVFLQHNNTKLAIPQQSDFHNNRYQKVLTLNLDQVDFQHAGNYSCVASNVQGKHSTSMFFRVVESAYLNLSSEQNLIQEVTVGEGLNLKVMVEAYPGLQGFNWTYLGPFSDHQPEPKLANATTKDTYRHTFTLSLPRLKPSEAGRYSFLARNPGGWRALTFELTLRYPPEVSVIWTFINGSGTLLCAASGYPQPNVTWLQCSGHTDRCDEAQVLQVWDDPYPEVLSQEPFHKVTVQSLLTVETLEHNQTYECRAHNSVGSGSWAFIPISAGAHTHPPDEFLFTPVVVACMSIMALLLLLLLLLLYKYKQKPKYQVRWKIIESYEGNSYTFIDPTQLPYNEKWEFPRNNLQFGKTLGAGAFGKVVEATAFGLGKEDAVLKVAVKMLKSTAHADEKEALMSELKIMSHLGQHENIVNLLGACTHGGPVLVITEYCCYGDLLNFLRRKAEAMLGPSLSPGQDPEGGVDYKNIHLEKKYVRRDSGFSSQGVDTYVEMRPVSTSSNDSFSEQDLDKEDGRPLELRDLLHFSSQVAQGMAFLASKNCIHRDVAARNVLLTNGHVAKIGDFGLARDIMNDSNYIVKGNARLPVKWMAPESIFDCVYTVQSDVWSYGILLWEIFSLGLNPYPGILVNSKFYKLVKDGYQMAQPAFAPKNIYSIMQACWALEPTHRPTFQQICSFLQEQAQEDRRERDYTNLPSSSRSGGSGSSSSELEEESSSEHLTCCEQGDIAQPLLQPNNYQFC

B1: CSF1 (wild-type human CSF1) (ligand)
chain: EEVSEYCSHMIGSGHLQSLQRLIDSQMETSCQITFEFVDQEQLKDPVCYLKKAFLLVQDIMEDTMRFRDNTPNAIAIVQLQELSLRLKSCFTKDYEEHDKACVRTFYETPLQLLEKVKNVFNETKNLLDKDWNIFSKNCNNSFAECSSQD
- CSF1 EC-50, HEK293 CSF1R/SRE reporter [1]: 7.34e-10
- EC50, HEK293 CSF1R/SRE reporter, biological replica 1 [1]: 1.88e-09
- EC50, HEK293 CSF1R/SRE reporter, biological replica 2 [1]: 5.58e-09
- EC-50, HEK293 CSF1R/SRE reporter, biological replica 1 [1]: 4.52e-10
- EC-50, HEK293 CSF1R/SRE reporter, biological replica 2 [1]: 3.37e-10
- Max activation value, HEK293 CSF1R/SRE reporter, biological replica 1 [1]: 8.49
- Max activation value, HEK293 CSF1R/SRE reporter, biological replica 2 [1]: 1.14

B5: CSF1 Q79L (ligand)
chain: B1 chain with Q79L
- EC50, HEK293 CSF1R/SRE reporter, biological replica 1 [1]: 6.76e-09
- EC50, HEK293 CSF1R/SRE reporter, biological replica 2 [1]: 1.28e-08

B6: CSF1 Q81F (ligand)
chain: B1 chain with Q81F
- EC50, HEK293 CSF1R/SRE reporter, biological replica 1 [1]: 1.08e-08
- EC50, HEK293 CSF1R/SRE reporter, biological replica 2 [1]: 6.77e-08

B8: CSF1 V117I (ligand)
chain: B1 chain with V117I
- EC-50, HEK293 CSF1R/SRE reporter, biological replica 1 [1]: 1e-09
- EC-50, HEK293 CSF1R/SRE reporter, biological replica 2 [1]: 4.37e-10
- Max activation value, HEK293 CSF1R/SRE reporter, biological replica 1 [1]: 7.64
- Max activation value, HEK293 CSF1R/SRE reporter, biological replica 2 [1]: 1.28

B10: CSF1 S18Q (ligand)
chain: B1 chain with S18Q
- EC50, HEK293 CSF1R/SRE reporter, biological replica 1 [1]: 2.51e-09
- EC50, HEK293 CSF1R/SRE reporter, biological replica 2 [1]: 1.99e-08

B11: CSF1 A76I, V117L (ligand)
chain: B1 chain with A76I, V117L
- EC-50, HEK293 CSF1R/SRE reporter, biological replica 1 [1]: 1.18e-09
- EC-50, HEK293 CSF1R/SRE reporter, biological replica 2 [1]: 5.97e-10
- Max activation value, HEK293 CSF1R/SRE reporter, biological replica 1 [1]: 8.55
- Max activation value, HEK293 CSF1R/SRE reporter, biological replica 2 [1]: 1.14

B12: CSF1-25AA-IL10-HiBit (ligand)
chain: EEVSEYCSHMIGSGHLQSLQRLIDSQMETSCQITFEFVDQEQLKDPVCYLKKAFLLVQDIMEDTMRFRDNTPNAIAIVQLQELSLRLKSCFTKDYEEHDKACVRTFYETPLQLLEKVKNVFNETKNLLDKDWNIFSKNCNNSFAECSSQDGGGSGGSGGSGGSGGSGGSGGSGGGRASPGQGTQSENSCTHFPGNLPNMLRDLRDAFSRVKTFFQMKDQLDNLLLKESLLEDFKGYLGCQALSEMIQFYLEEVMPQAENQDPDIKAHVNSLGENLKTLRLRLRRCHRFLPCENKSKAVEQVKNAFNKLQEKGIYKAMSEFDIFINYIEAYMTMKIRNGGVSGWRLFKKIS
- EC-50 for IL10 activity, HEK-Blue IL-10 reporter cells [2]: 4.1e-10

B14: ORK10-003-HiBit R24A (ligand)
chain: MTQSENSCTHFPGNLPNMLRDLRDAFSRVKTFFQMKDQLDNLLLKESLLEDFKGYLGCQALSEMIQFYLEEVMPQAENQDPDIKAHVNSLGENLKTLRLRLRRCHRFLPCENKSKAVEQVKNAFNKLQEKGIYKAMSEFDIFINYIEAYLYKTITPEFANMLADLRDAFSRVKTFFQMKDQLDNLLLKESLLEDFKGYLGCQALSEMIQFYLEEVMPQAENQDPDIKAHVNSLGENLKTLRLRLRRCHRFLPCENKSKAVEQVKNAFNKLQEKGIYKAMSEFDIFINYIEAYMTMGGVSGWRLFKKIS
- EC-50, HEK-Blue IL-10 reporter cells [4]: 1.51e-10

B15: ORK10-003-HiBit D44A (ligand)
chain: B14 chain with A163R, D183A
- EC-50, HEK-Blue IL-10 reporter cells [4]: 2.01e-09

B16: ORK10-003-HiBit K34A (ligand)
chain: B14 chain with A163R, K173A
- EC-50, HEK-Blue IL-10 reporter cells [4]: 9.22e-10

B17: ORK10-003-HiBit Q38A (ligand)
chain: B14 chain with A163R, Q177A
- EC-50, HEK-Blue IL-10 reporter cells [4]: 2.07e-10

B18: ORK10-003-HiBit D44N (ligand)
chain: B14 chain with A163R, D183N
- EC-50, HEK-Blue IL-10 reporter cells [4]: 4.37e-10

B19: ORK10-003-HiBit E50A (ligand)
chain: B14 chain with A163R, E189A
- EC-50, HEK-Blue IL-10 reporter cells [4]: 5.43e-11

B22: IL-10WT (wild-type human IL-10) (ligand)
chain: SPGQGTQSENSCTHFPGNLPNMLRDLRDAFSRVKTFFQMKDQLDNLLLKESLLEDFKGYLGCQALSEMIQFYLEEVMPQAENQDPDIKAHVNSLGENLKTLRLRLRRCHRFLPCENKSKAVEQVKNAFNKLQEKGIYKAMSEFDIFINYIEAYMTMKIRN
- EC-50, HEK-Blue IL-10 reporter cells [3]: 8.91e-10

B23: Foldikine10 (ligand)
chain: MTQSENSCTHFPGNLPNMLRDLRDAFSRVKTFFQMKDQLDNLLLKESLLEDFKGYLGCQALSEMIQFYLEEVMPQAENQEPDIKAHVNSLGENLKTLRLRLRRCHRFLPCENKSKAVEQVKNAFNKLQEKGIYKAMSEFDIFINYIEAYMTMNNGGLDYLPNMLRDLRDAFSRVKTFFQMKDQLDNLLLKESLLEDFKGYLGCQALSEMIQFYLEEVMPQAENQDPDIKAHVNSLGENLKTLRLRLRRNHRFLPCENKSKAVEQVKNAFNKLQEKGIYKAMSEFDIFINYIEAYMTMKIRN
- EC-50, HEK-Blue IL-10 reporter cells [3]: 6.01e-10

Second part, the binder after the results:

- EC-50, HEK293 CSF1R/SRE reporter, biological replica 1 [1]: 8.8e-10
- EC-50, HEK293 CSF1R/SRE reporter, biological replica 2 [1]: 4.43e-10
- Max activation value, HEK293 CSF1R/SRE reporter, biological replica 1 [1]: 8.86
- Max activation value, HEK293 CSF1R/SRE reporter, biological replica 2 [1]: 1.37
B2: CSF1 V120I (ligand)
chain: B1 chain with V120I

- EC50, HEK293 CSF1R/SRE reporter, biological replica 1 [1]: 2.7e-09
- EC50, HEK293 CSF1R/SRE reporter, biological replica 2 [1]: 7.94e-09
B3: CSF1 Q17R (ligand)
chain: B1 chain with Q17R

- EC50, HEK293 CSF1R/SRE reporter, biological replica 1 [1]: 2.66e-09
- EC50, HEK293 CSF1R/SRE reporter, biological replica 2 [1]: 1.18e-08
B4: CSF1 H9F (ligand)
chain: B1 chain with H9F

- EC50, HEK293 CSF1R/SRE reporter, biological replica 1 [1]: 1.27e-08
- EC50, HEK293 CSF1R/SRE reporter, biological replica 2 [1]: 2.49e-08
B7: CSF1 E82K (ligand)
chain: B1 chain with E82K

- EC50, HEK293 CSF1R/SRE reporter, biological replica 1 [1]: 6.23e-09
- EC50, HEK293 CSF1R/SRE reporter, biological replica 2 [1]: 2.1e-08
B9: CSF1 V78W (ligand)
chain: B1 chain with V78W

- EC-50, HEK-Blue IL-10 reporter cells [3]: 3.87e-10
B13: ORK10-002 (ligand)
chain: MTQSENSCTHFPGNLPNMLRDLRDAFSRVKTFFQMKDQLDNLLLKESLLEDFKGYLGCQALSEMIQFYLEEVMPQAENQDPDIKAHVNSLGENLKTLRLRLRRCHRFLPCENKSKAVEQVKNAFNKLQEKGIYKAMSEFDIFINYIEAYMTMNFGGLDYLPNMLRDLRDAFSRVKTFFQMKDQLDNLLLKESLLEDFKGYLGCQALSEMIQFYLEEVMPQAENQDPDIKAHVNSLGENLKTLRLRLRRCHRFLPCENKSKAVEQVKNAFNKLQEKGIYKAMSEFDIFINYIEAYMTM

- EC-50, HEK-Blue IL-10 reporter cells [3]: 6.25e-10
B20: ORK10-005 (ligand)
chain: MTQSENSCTHFPGNLPNMLRDLRDAFSRVKTFFQMKDQLDNLLLKESLLEDFKGYLGCQALSEMIQFYLEEVMPQAENQDPDIKAHVNSLGENLKTLRLRLRRCHRFLPCENKSKAVEQVKNAFNKLQEKGIYKAMSEFDIFINYIEAKDKDIRDGDELANMLRDLRDAFSRVKTFFQMKDQLDNLLLKESLLEDFKGYLGCQALSEMIQFYLEEVMPQAENQDPDIKAHVNSLGENLKTLRLRLRRCHRFLPCENKSKAVEQVKNAFNKLQEKGIYKAMSEFDIFINYIEAYMTM

- EC-50, HEK-Blue IL-10 reporter cells [3]: 2.3e-10
B21: ORK10-003 (ligand)
chain: MTQSENSCTHFPGNLPNMLRDLRDAFSRVKTFFQMKDQLDNLLLKESLLEDFKGYLGCQALSEMIQFYLEEVMPQAENQDPDIKAHVNSLGENLKTLRLRLRRCHRFLPCENKSKAVEQVKNAFNKLQEKGIYKAMSEFDIFINYIEAYLYKTITPEFANMLRDLRDAFSRVKTFFQMKDQLDNLLLKESLLEDFKGYLGCQALSEMIQFYLEEVMPQAENQDPDIKAHVNSLGENLKTLRLRLRRCHRFLPCENKSKAVEQVKNAFNKLQEKGIYKAMSEFDIFINYIEAYMTM

- EC-50, HEK293 CSF1R/SRE reporter [1]: 1.45e-09
B24: CSF1 (1-190) HiBiT (ligand)
chain: EEVSEYCSHMIGSGHLQSLQRLIDSQMETSCQITFEFVDQEQLKDPVCYLKKAFLLVQDIMEDTMRFRDNTPNAIAIVQLQELSLRLKSCFTKDYEEHDKACVRTFYETPLQLLEKVKNVFNETKNLLDKDWNIFSKNCNNSFAECSSQDGGVSGWRLFKKIS
